A short description of this data set: protease stability score; higher = more stable; yeast display proteolysis, trypsin and chymotrypsin.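 Note: log10 excess protease needed over predicted unfolded state with 0 meaning unfolded.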
Turning to “DEEVLDDVVKVMHQNDFSRLKELFDKNATIEVGDKRYHGREEAHKLMDIIKKKVDHVRIDKVHKSGNKVRIDAILEYNGNHMKVVFVIKLHNGQAKNIHIEFTSENLQNKFKTLVD”, the protease stability score was found to be 1.02.

For “DEKQVVKVAKRVVQAVFEGDEELMKKMGKEDVEVEVGDTKYKGVDQAVDLVRKYKEFGLEFELKKYEVKGDTVTFHAKLYAGDKTIDVTVHYRADDGKMDETKVELSEEADKAFKQH”, the protease stability score was 1.1.

“DEEDFNNAQSMIKDEEQGDEEQITRNLDPNVKIRVGDKRLHGRENYAREVARKARRIRVEVHIRSVSHSGNHIRIDVEVHEQQNGKPDHSRFVVLMHYNNGTVKKAQFDDTD” returned a protease stability score of 0.103.

Sequence “DDHNVRLAKKFREAYETGDEETVKSMADPNAHYHVGDKRITGRERQVRKMTRERRDMRVQVESIRYSNRNGRVDVKIVEVRNDNGHPKRMRIVLHVNFQNGKAKEFQIEDQE” registered a protease stability score of 0.226.

With “DEELKERYERQEKAFENGDPDQAEDMMDPNVHVDVGNKELHGREEIVRDLHNVLQNWRFDRKVDSVNNRGDKLEVDAKQTLNVNGKPFHWHFTIVARAHNGKLKSQTVEMDPDTNRKIQS”, the protease stability score was -0.057.

Sequence “DENAQKLAREFMHAVREGNPEEIKKQVDPNAKMVVGDKEITGREEMSRQRERELREIEIDYRSVRVDVSGDKAKLDIKFERNDNGKPQQQQQTMTFVHQGDKIKHLVIKQHS” came in with a protease stability score of -0.373.

“DDEKARRWLHTMRDVINRGDPDKWRKLVDENVRLEIGDKEYHGREDARKWMKELRDQVDEIHIKTISAHGDKIEVTMEYKHNGRTRRITVVARIRDGRIKMVQVRDS” registered a protease stability score of 1.8.

“DDRELDHAKKVAERNDPDKLRKLADPNAHLTVGDKKIHGMHNAAQKVVSMWEQADHVDIKHVDQHNGRVRVEFRFVVNGREMEMVMRFEVKNGHIKRLQLEFTSEELQKKFDKLAD” showed a protease stability score of 0.57.

“DERHEAEKFAQHWMEVWKKGNHTEISKLIDENARVEVGDQKYHGRSQVKTRARQEVERADHVDYTIRSVKVTGNRIDINAQQVFRVNGTEDDQTRKIVLRRQGDKVVVQSIQAG” had a protease stability score of -0.159.

Sequence “DEERRKNLAREYNKALTSGDENKVRRLADENVRIEIGDHVVSGRENLSKLVRDDQERVDRFRVQDVHVEGDKIQFDIQVEINGKTINITIEMQLHNGRIKKIKFDPRAVEQLKG” registered a protease stability score of 0.612.

“DDRLNEMARRFITLLTTGDPKEAHKYMDENARFQIGDERYHGMHEFERLLTERQKTSRVQINSLEVQHEPNRANIHADVENERNGQPRRFDVIIELHAHNGRIKEITYEYRQ” came in with a protease stability score of -0.009.

As for “DEDARRKVEEFMDLMRNNNPEELAKLADPNATVHYGDKVVHGREQAMEWWKKFLTELRVDIKSVSIRVSGNKIDVEVDMIVQVNGRPVTLNWRFSFNFNNGKIEQIHVHISEEQQERIHS”, the protease stability score is 0.68.

As for “DKEAVNIATRYMKAWEQGDSDTLMKLMDEDVRVHYGDKVLEGREDVSRDLKRLLDHAQFEIKHVTNKDNGSVVIVNFHMIVNVNGEPVEVKVVVHFHMHNGRIKQIVIRIDPKQLRQIKG”, the protease stability score turned out to be 1.41.

With “DDTVKEQAEKFFTAQNTGNPDQIANLVDPNARFTIGDKEYHGRENFKSWMETVRDKMDVDYQITDLKTDENHADVVAEYTSTHNGQPERRRMRVDMRLSNGRMKEVNIEDRS”, the protease stability score is -0.503.

For the sequence “DDDQVRKYQHWLQEQEKGNEESLMEKMDPNVRIRVGNNEVHGREQAAHDIRKTQQEIRVQIDFKSVDAHNGRFDFKFTAQFEVNGTPFRYSASATVVAHNGHIKRVEIRVDPEVQRKRNK”, the protease stability score was -0.079.

For “DNDAMRQANTLVEILNTGDPDRFVEYVDPNVDIKIGDKSIHGREDARRWVTELKRQMHIHLSVKRVDVEGEHLNLHADQVNDENGQPDKDHVLIIMRFHNGRVKVLKQEHKS”, the protease stability score was found to be 0.53.

“DEEQLDLNRRWMTALKTNNPDDAINLIDPNAKVHVGDKTLSGRENIKTYLKHLIHESRFRFRVQSMNAKNGQVDVSVKQTQSHNGQPSTNRIVVRMEVENGTITSNTIDSKS” displayed a protease stability score of -0.073.

“DDTRVKFALHLIKLEETGDEDKLRELMDPNAKISVGDKTYHGREEIVRELRRENHEMRVRIKQFRSTASGEKVRITMDAEFEHNGKPDRFELEVVFDFTNGRVKHIELHERR” displayed a protease stability score of 1.22.
